Measured values taken from PMC7515722, “Participation of RecJ in the base excision repair pathway of Deinococcus radiodurans”.

T1: drRecJ WT (Deinococcus radiodurans, UniProt D0EM60 1-705)
T1 sequence: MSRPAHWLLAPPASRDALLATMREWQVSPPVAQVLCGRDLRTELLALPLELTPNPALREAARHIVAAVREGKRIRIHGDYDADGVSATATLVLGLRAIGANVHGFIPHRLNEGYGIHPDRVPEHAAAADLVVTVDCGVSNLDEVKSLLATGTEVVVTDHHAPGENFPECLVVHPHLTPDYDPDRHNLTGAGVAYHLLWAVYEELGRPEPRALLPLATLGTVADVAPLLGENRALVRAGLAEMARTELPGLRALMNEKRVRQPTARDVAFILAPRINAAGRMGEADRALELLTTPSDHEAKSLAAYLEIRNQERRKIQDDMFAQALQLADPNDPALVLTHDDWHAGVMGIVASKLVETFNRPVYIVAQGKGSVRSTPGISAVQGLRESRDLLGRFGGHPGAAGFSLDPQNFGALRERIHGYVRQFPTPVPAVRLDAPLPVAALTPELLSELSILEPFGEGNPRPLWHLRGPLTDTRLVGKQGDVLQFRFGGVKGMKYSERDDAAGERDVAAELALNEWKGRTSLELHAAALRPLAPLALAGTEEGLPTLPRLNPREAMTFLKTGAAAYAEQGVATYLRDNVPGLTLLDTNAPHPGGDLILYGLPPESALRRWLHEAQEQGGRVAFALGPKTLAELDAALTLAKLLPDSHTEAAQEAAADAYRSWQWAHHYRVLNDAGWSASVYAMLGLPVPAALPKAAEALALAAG


biological target: T1, drRecJ WT; assay: EMSA; no Mn2+ added; EMSA: 10 nM 3'-6-FAM ssDNA, 50 mM Tris-HCl pH 7.5, 150 mM KCl, 0.1 mg/ml BSA, 1 mM DTT, 5% glycerol, 20 min at 30 C; 8% native PAGE in TBE; Hill fit; conditions: protein: recombinant; label: 3'-6-FAM

Question: How did the Kd turn out when AAAAAAAAAAAAAAAAAAAA (ssDNA) [KY08, (dA)20] was run?
Answer: 54.9 ± 5.18 nM

Question: How did the Kd turn out when AAAAAAAAAAAAAAAAAAAA (ssDNA, 5'-P-dSpacer (tetrahydrofuran abasic, 5'-dRP mimic) added before A1) [KY11, 5'-P-dSpacer-(dA)20] was run?
Answer: 28.4 ± 3.1 nM

Question: How did the Kd turn out when AAAAAAAAAAAAAAAAAAAA (ssDNA, 5'-monophosphate) [KY10, 5'-P-(dA)20] was run?
Answer: 33.9 ± 2.83 nM
